Data reported in US20200339648A1 (University of Washington, published 2020).

B1: Mouse Serum Albumin (MSA) fusion to Neoleukin-2/15 (other)
chain: GSDGGSHHHHHHGSGSENLYFQGSGEAHKSEIAHRYNDLGEQHFKGLVLIAFSQYLQKCSYDEHAKLVQEVTDFAKTCVADESAANCDKSLHTLFGDKLCAIPNLRENYGELADCCTKQEPERNECFLQHKDDNPSLPPFERPEAEAMCTSFKENPTTFMGHYLHEVARRHPYFYAPELLYYAEQYNEILTQCCAEADKESCLTPKLDGVKEKALVSSVRQRMKCSSMQKFGERAFKAWAVARLSQTFPNADFAEITKLATDLTKVNKECCHGDLLECADDRAELAKYMCENQATISSKLQTCCDKPLLKKAHCLSEVEHDTMPADLPAIAADFVEDQEVCKNYAEAKDVFLGTFLYEYSRRHPDYSVSLLLRLAKKYEATLEKCCAEANPPACYGTVLAEFQPLVEEPKNLVKTNCDLYEKLGEYGFQNAILVRYTQKAPQVSTPTLVEAARNLGRVGTKCCTLPEDQRLPCVEDYLSAILNRVCLLHEKTPVSEHVTKCCSGSLVERRPCFSALTVDETYVPKEFKAETFTFHSDICTLPEKEKQIKKQTALAELVKHKPKATAEQLKTVMDDFAQFLDTCCKAADKDTCFSTEGPNLVTRCKDALAGGGSGGSGGGSGGSGSGPKKKIQLHAEHALYDALMILNIVKTNSPPAEEKLEDYAFNFELILEEIARLFESGDQKDEAEKAKRMKEWMKRIKTTASEDEQEEMANAIITILQSWIFS
notes: also called MSA-Neo2
B2: Neoleukin-2/15 (designed binder)
chain: PKKKIQLHAEHALYDALMILNIVKTNSPPAEEKLEDYAFNFELILEEIARLFESGDQKDEAEKAKRMKEWMKRIKTTASEDEQEEMANAIITILQSWIFS
notes: 100 residues; also called Neo-2/15; Neolukin-2/15

Columns and labels:
[1] = target: human IL-2Rβγc on human cells (YT-1 NK cells) (human) (UniProt P14784); test: cell-based or functional assay
[2] = target: T1, human IL-2 receptor β subunit (hIL-2Rβ) (human, UniProt P14784 27-240, biotin on the C-terminal biotin acceptor peptide); test: SPR, equilibrium titration; biotinylated IL-2Rβ on streptavidin chip
T1 construct: Biotinylated and immobilised on streptavidin; also called HsIL-2Rβ; human IL-2Rβ
T1 sequence: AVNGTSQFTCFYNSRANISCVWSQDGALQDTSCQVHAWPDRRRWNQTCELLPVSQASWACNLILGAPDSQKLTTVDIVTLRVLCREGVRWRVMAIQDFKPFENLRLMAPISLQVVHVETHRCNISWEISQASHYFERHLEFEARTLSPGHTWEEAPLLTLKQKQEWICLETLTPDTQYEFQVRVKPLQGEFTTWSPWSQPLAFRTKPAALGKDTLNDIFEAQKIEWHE
Description: (§1) Less than 100 response units (RU) of each ligand was immobilized to minimize mass transfer effects. […] Surface regeneration for all interactions was conducted using 15 s exposure to 1 M MgCl2 in 10 mM sodium acetate pH 5.5. SPR experiments were carried out in HBS-P+ buffer (GE Healthcare) supplemented with 0.2% bovine serum albumin (BSA) at 25° C. and all binding studies were performed at a flow rate of […] to prevent analyte rebinding. Data was visualized and processed using the Biacore T100 evaluation software version 2.0 (GE Healthcare). Equilibrium titration curve fitting and equilibrium binding dissociation (KD) value determination was implemented using GraphPad Prism assuming all binding interactions to be first order. Biolayer interferometry: binding data were collected in a Octet RED96 (ForteBio, Menlo Park, Calif.) and processed using the instrument's integrated software using a 1:1 binding model. […] Analyte proteins were diluted from concentrated stocks into binding buffer. After baseline measurement in binding buffer alone, the binding kinetics were monitored by dipping the biosensors in wells containing 100 nM of the designed protein (association) and then dipping the sensors back into baseline wells (dissociation).

[3] = target: T2, mouse IL-2 receptor β subunit (mIL-2Rβ) (mouse, UniProt P16297 27-240, biotin on the C-terminal biotin acceptor peptide); test: as above
T2 construct: extracellular domain; Biotinylated form for SPR; also called MmIL-2Rβ; murine IL-2Rβ
T2 sequence: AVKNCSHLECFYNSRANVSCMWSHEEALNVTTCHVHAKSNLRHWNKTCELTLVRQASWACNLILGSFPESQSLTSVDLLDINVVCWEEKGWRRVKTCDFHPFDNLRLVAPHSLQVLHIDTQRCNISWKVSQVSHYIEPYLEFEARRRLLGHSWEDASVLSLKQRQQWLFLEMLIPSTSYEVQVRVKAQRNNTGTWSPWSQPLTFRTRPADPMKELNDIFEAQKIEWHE
Description: as §1

[4] = target: human IL-2 receptor βγc heterodimer (hIL-2Rβγc), soluble (human) (UniProt P14784); test: SPR, equilibrium titration; IL-2Rγ on streptavidin chip, saturating IL-2Rβ in solution
[5] = target: mouse IL-2 receptor βγc heterodimer (mIL-2Rβγc), soluble (mouse) (UniProt P16297); test: as above
[6] = target: T3, mouse IL-2 receptor βγc heterodimer (mIL-2Rβγc), soluble (mouse, UniProt P16297 27-240; P34902 23-263, biotin on the C-terminal biotin acceptor peptide); test: biolayer interferometry; biotin-mIL2Gamma on streptavidin biosensor, MSA-Neo2 titrated from 729 to 1 nM with saturating mIL2Beta
T3 construct: extracellular domain; In SPR and BLI the gamma chain is on the chip or sensor and mIL-2Rβ is added in solution at saturating concentration (5 uM in SPR); also called MmIL-2Rβγc; mIL-2Rβνc
T3 sequence 1: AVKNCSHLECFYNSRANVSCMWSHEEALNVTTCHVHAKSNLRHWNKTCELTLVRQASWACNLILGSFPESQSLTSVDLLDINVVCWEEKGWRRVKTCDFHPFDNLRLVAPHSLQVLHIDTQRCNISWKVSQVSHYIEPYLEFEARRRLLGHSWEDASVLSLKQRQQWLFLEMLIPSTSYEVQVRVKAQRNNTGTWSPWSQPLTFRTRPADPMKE
T3 sequence 2: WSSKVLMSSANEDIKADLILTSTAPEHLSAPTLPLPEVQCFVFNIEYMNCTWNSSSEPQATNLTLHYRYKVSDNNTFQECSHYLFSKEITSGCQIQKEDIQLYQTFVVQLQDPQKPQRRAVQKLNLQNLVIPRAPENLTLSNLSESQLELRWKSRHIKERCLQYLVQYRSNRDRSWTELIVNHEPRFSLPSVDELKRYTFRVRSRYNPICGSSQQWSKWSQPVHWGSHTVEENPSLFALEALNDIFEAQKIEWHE

[7] = target: T4, mouse IL-2Rβγc on murine cells (CTLL-2 T cells, primary CD4+ T cells) (mouse, UniProt P16297 27-539; P34902 23-369); test: cell-based or functional assay
T4 sequence (looked up) 1: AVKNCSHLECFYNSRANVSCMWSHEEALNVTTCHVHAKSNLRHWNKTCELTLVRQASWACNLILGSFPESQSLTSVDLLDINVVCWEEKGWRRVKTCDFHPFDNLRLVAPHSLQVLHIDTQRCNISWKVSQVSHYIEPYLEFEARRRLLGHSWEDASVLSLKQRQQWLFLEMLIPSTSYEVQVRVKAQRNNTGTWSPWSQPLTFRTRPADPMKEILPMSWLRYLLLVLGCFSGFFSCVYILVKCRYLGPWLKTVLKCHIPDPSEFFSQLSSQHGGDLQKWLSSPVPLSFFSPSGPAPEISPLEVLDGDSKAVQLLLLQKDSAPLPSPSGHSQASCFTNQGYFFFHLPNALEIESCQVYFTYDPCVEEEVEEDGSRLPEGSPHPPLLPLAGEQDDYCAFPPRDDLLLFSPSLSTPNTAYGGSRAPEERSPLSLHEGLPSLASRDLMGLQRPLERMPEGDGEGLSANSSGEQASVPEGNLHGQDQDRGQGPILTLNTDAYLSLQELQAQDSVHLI
T4 sequence (looked up) 2: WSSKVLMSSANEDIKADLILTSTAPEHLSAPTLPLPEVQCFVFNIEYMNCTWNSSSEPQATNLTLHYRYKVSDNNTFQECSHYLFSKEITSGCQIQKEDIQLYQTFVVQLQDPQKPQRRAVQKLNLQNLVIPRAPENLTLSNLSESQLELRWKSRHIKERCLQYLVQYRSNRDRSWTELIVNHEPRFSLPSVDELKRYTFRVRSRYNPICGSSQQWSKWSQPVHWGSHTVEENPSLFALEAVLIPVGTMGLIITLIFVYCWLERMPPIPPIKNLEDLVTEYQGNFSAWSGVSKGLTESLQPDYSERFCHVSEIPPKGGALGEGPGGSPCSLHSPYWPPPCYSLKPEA

[8] = target: T4, mouse IL-2Rβγc on murine cells (CTLL-2 …); test: cell-based or functional assay; remark: listed apart in the source
[9] = target: T5, human IL-2 receptor α subunit (hIL-2Rα) (human, UniProt P01589 22-238, biotin on the C-terminal biotin acceptor peptide); test: SPR, biotinylated receptor on streptavidin chip
T5 construct: range 1-217; Biotinylated and immobilised on streptavidin; also called human IL-2Rα; CD25
T5 sequence: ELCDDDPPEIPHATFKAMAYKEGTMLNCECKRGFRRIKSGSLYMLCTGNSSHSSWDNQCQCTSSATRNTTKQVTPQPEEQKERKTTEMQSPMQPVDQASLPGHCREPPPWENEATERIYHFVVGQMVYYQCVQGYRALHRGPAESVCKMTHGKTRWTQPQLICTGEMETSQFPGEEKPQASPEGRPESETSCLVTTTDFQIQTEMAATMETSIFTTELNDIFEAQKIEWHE
Description: as §1

[10] = target: T6, mouse IL-2 receptor α subunit (mIL-2Rα) (mouse, UniProt P01590 22-236, biotin on the C-terminal biotin acceptor peptide); test: SPR, biotinylated receptor on streptavidin chip
T6 construct: extracellular domain; Biotinylated and immobilised on streptavidin; also called murine IL-2Rα
T6 sequence: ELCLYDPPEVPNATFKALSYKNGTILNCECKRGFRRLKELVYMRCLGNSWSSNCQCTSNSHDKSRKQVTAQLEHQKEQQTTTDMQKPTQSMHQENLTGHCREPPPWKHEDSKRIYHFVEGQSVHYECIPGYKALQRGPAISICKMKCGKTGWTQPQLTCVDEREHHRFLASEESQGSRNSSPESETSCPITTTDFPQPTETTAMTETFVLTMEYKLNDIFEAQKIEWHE
Description: as §1

[11] = target: T3, mouse IL-2 receptor βγc heterodimer …; test: SPR, equilibrium titration; IL-2Rγ on streptavidin chip, saturating IL-2Rβ in solution
Description: as §1

Molecule | EC50 (CD25-) pSTAT5p, human NK (YT, CD25-) cells [1] [pM] | Kd [2] [nM] | Kd [3] [nM] | Kd [4] [nM] | Kd [5] [nM] | Kd [6] [nM] | EC50 of pSTAT5 signaling, murine CD4+ primary cells ex vivo, CD25+ [7] [pM] | EC50 of pSTAT5 signaling, murine CD4+ primary cells ex vivo, CD25- [7] [pM] | EC50 (CD25+) pSTAT5, murine T (CTLL-2, CD25+) cells [8] [pM] | binding result [9] | binding result [10] | Kd [11] [nM]
Super-2/Superkine (PDB: 3QAZ) (ligand) | 70 | 2 | 214 | 301 | 312 |  |  |  |  |  |  | 
B1 |  |  |  |  |  | 33.5 |  |  |  |  |  | 
B2 |  |  | 16.1 |  |  |  | ~24 | ~129 | 70 | no binding | no binding | 38.4
